Where no end group is shown, it is not given here.
Key:
Assay in all cases: 125I-Tyr11-SRIF displacement on SSTR membrane preparations, negative control peptide
[1] = target: T1, cloned human somatostatin receptor 1 (human, UniProt P30872 1-391)
T1 construct: whole, on cells; Tested as cell membrane preparations; also called SSTR-1; SSTR1
Excerpt: (§1) The receptor preparations used for these tests were either from the cloned human receptors selectively and stably expressed in Chinese Hamster Ovary (CHO) cells or from cell lines naturally expressing the SSTRs. […] The binding reactions were filtered, the filters were washed and the bound radioactivity was counted in gamma counter.
(§2) In order to validate positive signals of the binding tests, and to eliminate non-specific signals, samples of irrelevant peptides, such as GnRH, that were synthesized and handled using the same procedures, were tested in the same assays as negative control samples. These samples had no binding activity in any of the assays. Results are shown below in Tables 5 and 6 and FIG. 1.

[2] = target: T2, cloned human somatostatin receptor 2 (human, UniProt P30874 1-369)
T2 construct: whole, on cells; Tested as cell membrane preparations; also called SSTR-2; SSTR2
Excerpt: as §1, §2

[3] = target: T3, cloned human somatostatin receptor 3 (human, UniProt P32745 1-418)
T3 construct: whole, on cells; Tested as cell membrane preparations; also called SSTR-3; SSTR3
Excerpt: as §1, §2

[4] = target: T4, cloned human somatostatin receptor 4 (human, UniProt P31391 1-388)
T4 construct: whole, on cells; Tested as cell membrane preparations; also called SSTR-4; SSTR-R4
Excerpt: as §1, §2

[5] = target: T5, cloned human somatostatin receptor 5 (human, UniProt P35346 1-364)
T5 construct: whole, on cells; Tested as cell membrane preparations; also called SSTR-5; SSTR5
Excerpt: as §1, §2

Measured: binding result

T3 sequence (P32745 whole entry): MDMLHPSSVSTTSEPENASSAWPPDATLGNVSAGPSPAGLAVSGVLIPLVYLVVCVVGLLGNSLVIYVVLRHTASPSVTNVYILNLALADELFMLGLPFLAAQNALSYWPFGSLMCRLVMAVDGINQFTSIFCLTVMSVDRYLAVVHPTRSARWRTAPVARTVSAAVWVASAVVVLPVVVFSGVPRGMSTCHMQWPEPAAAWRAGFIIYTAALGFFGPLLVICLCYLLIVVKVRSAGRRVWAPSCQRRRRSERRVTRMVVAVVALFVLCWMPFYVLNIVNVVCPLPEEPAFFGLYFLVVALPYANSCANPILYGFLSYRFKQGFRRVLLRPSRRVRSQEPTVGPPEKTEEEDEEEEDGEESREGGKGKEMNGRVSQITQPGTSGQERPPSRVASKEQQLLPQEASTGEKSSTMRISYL
T2 sequence (P30874 whole entry): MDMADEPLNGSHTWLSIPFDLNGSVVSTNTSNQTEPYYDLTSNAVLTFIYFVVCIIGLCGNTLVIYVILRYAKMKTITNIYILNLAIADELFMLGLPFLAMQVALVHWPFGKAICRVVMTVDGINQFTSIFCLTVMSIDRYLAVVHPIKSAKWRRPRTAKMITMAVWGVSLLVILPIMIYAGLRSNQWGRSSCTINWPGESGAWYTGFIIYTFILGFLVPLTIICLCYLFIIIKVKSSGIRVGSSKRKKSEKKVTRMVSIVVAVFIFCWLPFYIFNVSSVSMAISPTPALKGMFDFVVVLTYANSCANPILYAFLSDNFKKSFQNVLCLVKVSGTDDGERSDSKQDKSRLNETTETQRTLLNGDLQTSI
T5 sequence (P35346 whole entry): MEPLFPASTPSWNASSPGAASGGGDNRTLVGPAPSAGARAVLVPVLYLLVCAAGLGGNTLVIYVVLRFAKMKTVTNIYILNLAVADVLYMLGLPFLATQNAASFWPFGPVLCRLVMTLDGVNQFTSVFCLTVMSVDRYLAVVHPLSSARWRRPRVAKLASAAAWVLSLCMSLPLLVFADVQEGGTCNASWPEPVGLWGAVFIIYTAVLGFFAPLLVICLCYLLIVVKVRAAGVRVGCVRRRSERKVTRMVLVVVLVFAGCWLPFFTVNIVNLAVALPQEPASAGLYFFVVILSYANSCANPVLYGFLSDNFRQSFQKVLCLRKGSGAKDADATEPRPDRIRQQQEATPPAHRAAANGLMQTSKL
T1 sequence (P30872 whole entry): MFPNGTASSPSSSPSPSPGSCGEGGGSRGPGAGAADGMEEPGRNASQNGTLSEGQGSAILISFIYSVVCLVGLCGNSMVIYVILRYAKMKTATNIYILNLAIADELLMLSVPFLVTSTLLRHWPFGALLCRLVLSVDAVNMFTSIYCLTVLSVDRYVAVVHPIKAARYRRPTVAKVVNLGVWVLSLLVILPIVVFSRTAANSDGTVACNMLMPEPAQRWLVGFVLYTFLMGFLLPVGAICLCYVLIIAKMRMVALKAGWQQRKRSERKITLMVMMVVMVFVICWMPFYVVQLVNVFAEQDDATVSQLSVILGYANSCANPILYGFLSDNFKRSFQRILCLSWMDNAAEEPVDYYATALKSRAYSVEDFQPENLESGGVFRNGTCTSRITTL
T4 sequence (P31391 whole entry): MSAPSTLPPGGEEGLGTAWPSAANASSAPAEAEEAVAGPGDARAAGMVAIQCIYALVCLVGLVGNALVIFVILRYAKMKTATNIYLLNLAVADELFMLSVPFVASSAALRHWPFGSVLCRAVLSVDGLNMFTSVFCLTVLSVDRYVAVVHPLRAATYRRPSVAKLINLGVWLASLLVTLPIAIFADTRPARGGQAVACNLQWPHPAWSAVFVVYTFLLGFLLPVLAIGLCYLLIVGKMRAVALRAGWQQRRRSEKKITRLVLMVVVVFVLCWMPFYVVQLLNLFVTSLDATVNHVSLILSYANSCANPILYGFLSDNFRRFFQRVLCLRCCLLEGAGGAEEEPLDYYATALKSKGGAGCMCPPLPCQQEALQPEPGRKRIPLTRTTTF

B1: GnRH (peptide, UniProt P01148 24-33, looked up)
peptide: QHWSYGLRPG
modifications: not fully specified (residue 1, C-terminus)
notes: Negative control sample; also called irrelevant peptides, such as GnRH
no binding: [1] | [2] | [3] | [4] | [5]

From patent publication US6930088B2, “Conformationally constrained backbone cyclized somatostatin analogs” (Peptor Ltd., priority 1998, dated 2005)
